The text below walks through data of the supplement of paper PMC11246515.

± gives the standard deviation of the averaged measurements.

This data set is described as follows: total protein half-life in vivo (active degradation + dilution); higher = more stable protein.
The mark [1] stands for this setting: E. coli NCM3722 delta-clpP delta-lon delta-hslV, growth: N-lim chemostat, doubling time 6 h.
[2] abbreviates: E. coli NCM3722 delta-clpP, growth: N-lim chemostat, doubling time 6 h.
Where [3] appears, read: E. coli NCM3722 delta-hslV, growth: N-lim chemostat, doubling time 6 h.
The mark [4] stands for this setting: E. coli NCM3722 delta-lon, growth: N-lim chemostat, doubling time 6 h.
Setting [5] is: E. coli NCM3722 delta-smpB, growth: N-lim chemostat, doubling time 6 h.
Where [6] appears, read: wild type E. coli NCM3722, growth: C-lim chemostat, doubling time 3 h.
[7] abbreviates: wild type E. coli NCM3722, growth: C-lim chemostat, doubling time 6 h.
The mark [8] stands for this setting: wild type E. coli NCM3722, growth: C-lim chemostat, doubling time 12 h.
Where [9] appears, read: wild type E. coli NCM3722, growth: N-lim chemostat, doubling time 6 h.
The mark [10] stands for this setting: wild type E. coli NCM3722, growth: N-lim chemostat, doubling time 12 h.
Where [11] appears, read: wild type E. coli NCM3722, growth: P-lim chemostat, doubling time 6 h.
The mark [12] stands for this setting: wild type E. coli NCM3722, growth: P-lim chemostat, doubling time 12 h.

“MALQNEKNSRYLLRDWKPENPAFWENKGKHIARRNLWISVSCLLLAFCVWMLFSAVTVNLNKIGFNFTTDQLFLLTALPSVSGALLRVPYSFMVPIFGGRRWTVFSTAILIIPCVWLGIAVQNPNTPFGIFIVIALLCGFAGANFASSMGNISFFFPKAKQGSALGINGGLGNLGVSVMQLVAPLVIFVPVFAFLGVNGVPQADGSVMSLANAAWIWVPLLAIATIAAWSGMNDIASSRASIADQLPVLQRLHLWLLSLLYLATFGSFIGFSAGFAMLAKTQFPDVNILRLAFFGPFIGAIARSVGGAISDKFGGVRVTLINFIFMAIFSALLFLTLPGTGSGNFIAFYAVFMGLFLTAGLGSGSTFQMIAVIFRQITIYRVKMKGGSDEQAHKEAVTETAAALGFISAIGAVGGFFIPQAFGMSLNMTGSPVGAMKVFLIFYIVCVLLTWLVYGRRKFSQK”: the “total protein half-life in vivo” value runs as follows: under setting [1], 6.73 ± 1.1 h; under setting [2], 6.58 ± 0.92 h; under setting [3], 6.57 ± 1.3 h; under setting [4], 6.52 ± 0.52 h; under setting [5], 6.07 ± 0.48 h; under setting [6], 2.53 h. Further, the “total protein half-life in vivo” value turned out to be 6.34 ± 0.088 h under setting [7]; 13.7 ± 1.8 h under setting [8]; 4.92 ± 0.76 h under setting [9]; 10.8 ± 2.6 h under setting [10]; 7.05 h under setting [11]; 12.86 ± 0.088 h under setting [12].

Take “MSHHHEGCCKHEGQPRHEGCCKGEKSEHEHCGHGHQHEHGQCCGGRHGRGGGRRQRFFGHGELRLVILDILSRDDSHGYELIKAIENLTQGNYTPSPGVIYPTLDFLQEQSLITIREEEGGKKQIALTEQGAQWLEENREQVEMIEERIKARCVGAALRQNPQMKRALDNFKAVLDLRVNQSDISDAQIKKIIAVIDRAAFDITQLD”: the “total protein half-life in vivo” value runs as follows: under setting [1], 4.91 ± 0.66 h; under setting [3], 3.22 ± 0.047 h; under setting [4], 4.273 ± 0.011 h; under setting [5], 3.33 ± 0.41 h; under setting [6], 2.55 ± 0.029 h; under setting [7], 4.67 ± 0.56 h. Moreover, the “total protein half-life in vivo” value under setting [8] came to 8.76 ± 2.2 h; the “total protein half-life in vivo” value under setting [9] amounted to 3.65 ± 0.74 h; the “total protein half-life in vivo” value under setting [10] is 5.05 ± 0.53 h; the “total protein half-life in vivo” value under setting [11] came to 4.8 ± 0.27 h; the “total protein half-life in vivo” value under setting [12] was 8.64 ± 0.59 h.

Consider “MTDIAQLLGKDADNLLQHRCMTIPSDQLYLPGHDYVDRVMIDNNRPPAVLRNMQTLYNTGRLAGTGYLSILPVDQGVEHSAGASFAANPLYFDPKNIVELAIEAGCNCVASTYGVLASVSRRYAHRIPFLVKLNHNETLSYPNTYDQTLYASVEQAFNMGAVAVGATIYFGSEESRRQIEEISAAFERAHELGMVTVLWAYLRNSAFKKDGVDYHVSADLTGQANHLAATIGADIVKQKMAENNGGYKAINYGYTDDRVYSKLTSENPIDLVRYQLANCYMGRAGLINSGGAAGGETDLSDAVRTAVINKRAGGMGLILGRKAFKKSMADGVKLINAVQDVYLDSKITIA [P0A991]”, for which the “total protein half-life in vivo” value runs as follows: under setting [1], 6.08 ± 0.41 h; under setting [2], 5.88 ± 0.5 h; under setting [3], 6.17 ± 0.49 h; under setting [4], 5.99 ± 0.7 h; under setting [5], 5.21 ± 0.23 h; under setting [6], 3.37 ± 0.44 h. The “total protein half-life in vivo” value under setting [7] came out at 6.705 ± 0.067 h; the “total protein half-life in vivo” value under setting [8] was determined as 12.9 ± 0.75 h; the “total protein half-life in vivo” value under setting [9] amounted to 5.51 ± 0.26 h; the “total protein half-life in vivo” value under setting [10] worked out at 10.1 ± 0.44 h; the “total protein half-life in vivo” value under setting [11] came out at 6.06 ± 0.11 h; the “total protein half-life in vivo” value under setting [12] was determined as 13.3 ± 0.99 h.

Consider “MCIGVPGQVLAVGEDIHQLAQVEVCGIKRDVNIALICEGNPADLLGQWVLVHVGFAMSIIDEDEAKATLDALRQMDYDITSA [P0AAM7]”, for which the “total protein half-life in vivo” value runs as follows: under setting [1], 4.75 ± 0.12 h; under setting [7], 2.77 h; under setting [12], 2.51 h.

Turning to “MLQLLLAVFIGGGTGSVARWLLSMRFNPLHQAIPLGTLTANLIGAFIIGIGFAWFSRMTNIDPVWKVLITTGFCGGLTTFSTFSAEVVFLLQEGRFGWALLNVFVNLLGSFAMTALAFWLFSASTAH”, the “total protein half-life in vivo” value under setting [3] was 5.83 h.

For the sequence “MRNFDLSPLMRQWIGFDKLANALQNAGESQSFPPYNIEKSDDNHYRITLALAGFRQEDLEIQLEGTRLSVKGTPEQPKEEKKWLHQGLMNQPFSLSFTLAENMEVSGATFVNGLLHIDLIRNEPEPIAAQRIAISERPALNS [P0C058]”, the “total protein half-life in vivo” value by setting is: under setting [1], 6.3 ± 0.16 h; under setting [2], 2.21 ± 0.097 h; under setting [5], 1.42 h; under setting [6], 1.03 h; under setting [8], 1.59 h; under setting [9], 4.47 h. The “total protein half-life in vivo” value under setting [10] came to 3.19 h.

Consider “MSLPFLRTLQGDRFFQLLILVGIGLSFFVPFAPKSWPAAIDWHTIITLSGLMLLTKGVELSGYFDVLGRKMVRRFATERRLAMFMVLAAALLSTFLTNDVALFIVVPLTITLKRLCEIPVNRLIIFEALAVNAGSLLTPIGNPQNILIWGRSGLSFAGFIAQMAPLAGAMMLTLLLLCWCCFPGKAMQYHTGVQTPEWKPRLVWSCLGLYIVFLTALEFKQELWGLVIVAAGFALLARRVVLSVDWTLLLVFMAMFIDVHLLTQLPALQGVLGNVSHLSEPGLWLTAIGLSQVISNVPSTILLLNYVPPSLLLVWAVNVGGFGLLPGSLANLIALRMANDRRIWWRFHLYSIPMLLWAALVGYVLLVILPAN”, for which, under setting [10], the “total protein half-life in vivo” value worked out at 9.39 h.

In the case of “MKIGTQNQAFFPENILEKFRYIKEMGFDGFEIDGKLLVNNIEEVKAAIKETGLPVTTACGGYDGWIGDFIEERRLNGLKQIERILEALAEVGGKGIVVPAAWGMFTFRLPPMTSPRSLDGDRKMVSDSLRVLEQVAARTGTVVYLEPLNRYQDHMINTLADARRYIVENDLKHVQIIGDFYHMNIEEDNLAQALHDNRDLLGHVHIADNHRYQPGSGTLDFHALFEQLRADNYQGYVVYEGRIRAEDPAQAYRDSLAWLRTC”, under setting [1], the “total protein half-life in vivo” value turned out to be 5.87 ± 0.64 h.
